Columns and labels:
[1] = molecular target: extracellular domain of FGFR2c protein (Example 1) (UniProt P21802); assay: phage ELISA
[2] = molecular target: extracellular domain of the FGFR2b protein (NP_075259.4) (UniProt P21802); assay: phage ELISA
[3] = molecular target: recombinant mouse FGFR2b (mouse) (UniProt P21803); assay: ELISA, antibody 1ug/mL
[4] = molecular target: recombinant mouse FGFR2b (mouse) (UniProt P21803); assay: BLI, antibody on AHC2 sensor
FGFR1 (acro) = FGFR1 (acro) (UniProt P11362); assay: ELISA, antibody 10 µg/mL
FGFR1 (acro), sequence (P11362 22-376): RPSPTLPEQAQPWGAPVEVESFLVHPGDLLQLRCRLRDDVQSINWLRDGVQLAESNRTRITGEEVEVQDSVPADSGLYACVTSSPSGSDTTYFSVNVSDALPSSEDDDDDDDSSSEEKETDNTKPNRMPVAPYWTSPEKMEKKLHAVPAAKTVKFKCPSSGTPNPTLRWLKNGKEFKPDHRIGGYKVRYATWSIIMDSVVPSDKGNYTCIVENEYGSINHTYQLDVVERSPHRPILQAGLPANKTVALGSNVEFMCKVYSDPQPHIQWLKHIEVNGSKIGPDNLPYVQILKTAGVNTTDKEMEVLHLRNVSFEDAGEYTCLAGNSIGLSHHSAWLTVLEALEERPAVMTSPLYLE

recombinant mouse FGFR2b (mouse), sequence (P21803 22-377): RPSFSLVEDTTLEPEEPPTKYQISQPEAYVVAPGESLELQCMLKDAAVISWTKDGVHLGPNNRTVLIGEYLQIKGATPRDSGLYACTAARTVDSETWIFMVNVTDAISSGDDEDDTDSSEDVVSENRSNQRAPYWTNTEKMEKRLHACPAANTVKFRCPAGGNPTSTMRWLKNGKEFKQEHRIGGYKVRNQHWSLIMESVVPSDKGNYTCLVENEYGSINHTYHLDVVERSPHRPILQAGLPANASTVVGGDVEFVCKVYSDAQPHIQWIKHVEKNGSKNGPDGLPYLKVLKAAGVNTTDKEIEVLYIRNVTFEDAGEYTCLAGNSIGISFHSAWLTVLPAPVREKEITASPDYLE
extracellular domain of FGFR2c protein (Example 1), sequence (P21802 22-377): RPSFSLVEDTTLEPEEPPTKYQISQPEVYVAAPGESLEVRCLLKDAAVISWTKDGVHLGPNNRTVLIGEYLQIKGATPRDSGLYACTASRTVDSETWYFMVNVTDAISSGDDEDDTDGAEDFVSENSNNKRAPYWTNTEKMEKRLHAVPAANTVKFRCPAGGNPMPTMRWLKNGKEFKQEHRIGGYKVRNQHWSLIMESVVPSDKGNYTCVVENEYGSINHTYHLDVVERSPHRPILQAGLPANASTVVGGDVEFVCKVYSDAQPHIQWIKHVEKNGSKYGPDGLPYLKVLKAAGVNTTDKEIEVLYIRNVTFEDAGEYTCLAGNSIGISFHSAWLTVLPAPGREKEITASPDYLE
extracellular domain of the FGFR2b protein (NP_075259.4), sequence (P21802 other isoform, or with tags, fused parts or gaps): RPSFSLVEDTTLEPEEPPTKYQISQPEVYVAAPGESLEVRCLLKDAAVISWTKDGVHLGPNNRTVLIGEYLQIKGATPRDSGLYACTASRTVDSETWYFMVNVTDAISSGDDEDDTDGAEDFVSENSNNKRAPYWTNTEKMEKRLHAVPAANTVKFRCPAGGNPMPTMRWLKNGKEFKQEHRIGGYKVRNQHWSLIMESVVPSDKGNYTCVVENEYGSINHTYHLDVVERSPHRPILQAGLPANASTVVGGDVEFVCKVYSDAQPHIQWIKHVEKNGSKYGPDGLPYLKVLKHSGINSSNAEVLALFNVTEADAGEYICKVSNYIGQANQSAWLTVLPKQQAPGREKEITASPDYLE

| Binder | OD (450 nm) value [1] | OD (450 nm) value [2] | OD (450 nm) value [3] | Kd [4] | koff [4] | kon [4] | OD (450 nm) value (FGFR1 (acro)) |
| --- | --- | --- | --- | --- | --- | --- | --- |
| 3D6 scFv displayed on phage (scFv) scFv: QVQLQQSGAELVKPGASVKMSCKASGYTFRYYNMHWVKRTPGQGLEWIGLIYPDNGDTSYNQKFKGKATLTADTSSSTAYMQLSSLTSEDSAVYYCARGGLDYWGQGTSLTVSSGGGGSGGGGSGGGGSDIQMTQSPASLSVSVGETVTITCRASENIYSNLAWYQQKQGKSPQLLVYNAKTLADGVPSRFSGSGSGTQYSLKINSLQPEDFGSYYCQHFWSTPFTFGSGTKLELK | 0.037 | 1.92 |  |  |  |  |  |
| 2B2 scFv-Fc (Fc fusion) QLQLQQSGAELVKPGASVKMSCKASGYTFASYNLHWVKQTPGQGLEWIGLIYPENGDTSYNQKFKDKATLTADKSSTTAYIQLSSLASEDSAVYFCARGGFDYWGQGTTLTVSSGGGGSGGGGSGGGGSDIVMTQSQKFMSTSVGDRVSVTCKASQNVGTNVAWYQQKPGQSPKALIYSASYRYSGVPDRFTGSGSGTDYTLTISSVQAEDLALYYCQQHYSTPYTFGGGTKLELKESKYGPPCPPCPAPEAAGGPSVFLFPPKPKDTLMISRTPEVTCVVVDVSQEDPEVQFNWYVDGVEVHNAKTKPREEQFNSTYRVVSVLTVLHQDWLNGKEYKCKVSNKGLPSSIEKTISKAKGQPREPQVYTLPPSQEEMTKNQVSLTCLVKGFYPSDIAVEWESNGQPENNYKTTPPVLDSDGSFFLYSKLTVDKSRWQEGNVFSCSVMHEALHNHYTQKSLSLSLG |  |  | 3.09 | 53.5 nM | 0.00235 s⁻¹ | 43900 M⁻¹ s⁻¹ | 0.109 |
| 1D7 scFv-Fc (Fc fusion) QIQLQQSGAELVKPGASVKMSCKASGYTFRYYNMHWVKRTPGQGLEWIGLIYPDNGDTSYNQKFKGKATLTADTSSSTAYMQLSSLTSEDSAVYYCARGGLDYWGQGTSLTVSSGGGGSGGGGSGGGGSDIQMTQSPSSMSASLGDRITITCQATQDIVKNLNWYQQKPGKPPSFLIYYATELAEGVPSRFSGSGSGSDYSLTISNLESEDFADYYCLQFYEFPLTFGAGTKLELKESKYGPPCPPCPAPEAAGGPSVFLFPPKPKDTLMISRTPEVTCVVVDVSQEDPEVQFNWYVDGVEVHNAKTKPREEQFNSTYRVVSVLTVLHQDWLNGKEYKCKVSNKGLPSSIEKTISKAKGQPREPQVYTLPPSQEEMTKNQVSLTCLVKGFYPSDIAVEWESNGQPENNYKTTPPVLDSDGSFFLYSKLTVDKSRWQEGNVFSCSVMHEALHNHYTQKSLSLSLG |  |  | 3.04 | 27.6 nM | 0.00117 s⁻¹ | 42500 M⁻¹ s⁻¹ | 0.074 |
| 3B4 scFv-Fc (Fc fusion) EVQLQQSGADLVKPGASVKMSCKASGYTFSYYNMHWVRRTPGQGLEWIGLIYPDNGDTSYNQKFKGKATLTADTSSSTAYMQLSSLTSEDSAVYYCARGGLDYWGQGTTLTVSSGGGGSGGGGSGGGGSDIQMIQSPASMSASVGETVTITCGASENIYGALNWYQRKQGKSPQLLIYGATNLADGMSSRFSGSGSGRQYSLKISSLHPDDVATYYCQNVLSTPYTFGGGTKLEMKESKYGPPCPPCPAPEAAGGPSVFLFPPKPKDTLMISRTPEVTCVVVDVSQEDPEVQFNWYVDGVEVHNAKTKPREEQFNSTYRVVSVLTVLHQDWLNGKEYKCKVSNKGLPSSIEKTISKAKGQPREPQVYTLPPSQEEMTKNQVSLTCLVKGFYPSDIAVEWESNGQPENNYKTTPPVLDSDGSFFLYSKLTVDKSRWQEGNVFSCSVMHEALHNHYTQKSLSLSLG |  |  | 2.88 | 27.3 nM | 0.0015 s⁻¹ | 54900 M⁻¹ s⁻¹ | 0.458 |
| 3B7 scFv-Fc (Fc fusion) EVQLQQSGAELVKPGASVKMSCKASGYTFRYYNMHWVKRTPGQGLEWIGLIYPDNGDTSYNQKFKGKATLTADTSSSTAYMQLSSLTSEDSAVYYCARGGFDYWGQGTTLTVSSGGGGSGGGGSGGGGSDIQMTQSPASLSASVGETVTITCGASENIYGALNWYQRKQGKSPQLLIYGATNLADGMSSRFSGSGSGRQYSLKISSLHPDDVATYYCQNVLSTPYTFGGGTKLELKESKYGPPCPPCPAPEAAGGPSVFLFPPKPKDTLMISRTPEVTCVVVDVSQEDPEVQFNWYVDGVEVHNAKTKPREEQFNSTYRVVSVLTVLHQDWLNGKEYKCKVSNKGLPSSIEKTISKAKGQPREPQVYTLPPSQEEMTKNQVSLTCLVKGFYPSDIAVEWESNGQPENNYKTTPPVLDSDGSFFLYSKLTVDKSRWQEGNVFSCSVMHEALHNHYTQKSLSLSLG |  |  | 2.97 | 33.9 nM | 0.00172 s⁻¹ | 50700 M⁻¹ s⁻¹ | 0.083 |
| 3H9 scFv-Fc (Fc fusion) EIQLQQSGAELVKPGASVKMSCKASGYTFSFYNMHWVKRTPGQGLEWIGLIYPDNGDTSYNQKFKGKATLTADTSSSTAYMQLSSLTSEDSAVYYCARGGLDYWGQGTTLTVSSGGGGSGGGGSGGGGSDIVLTQSPASLSVSVGETVTITCRASENIYSNLAWYQQKQGKSPQLLVYAATNLADGVPSRFSGSGSGTQYSLKINSLQSEDFGSYYCQHFWGTPYTFGGGTKLELKESKYGPPCPPCPAPEAAGGPSVFLFPPKPKDTLMISRTPEVTCVVVDVSQEDPEVQFNWYVDGVEVHNAKTKPREEQFNSTYRVVSVLTVLHQDWLNGKEYKCKVSNKGLPSSIEKTISKAKGQPREPQVYTLPPSQEEMTKNQVSLTCLVKGFYPSDIAVEWESNGQPENNYKTTPPVLDSDGSFFLYSKLTVDKSRWQEGNVFSCSVMHEALHNHYTQKSLSLSLG |  |  | 2.99 | 23.8 nM | 0.00129 s⁻¹ | 54200 M⁻¹ s⁻¹ | 0.646 |
| 1C10 scFv-Fc (Fc fusion) QVQLQQSGAELVKPGASVKMSCKASGYTFRYYNMHWVKRTPGQGLEWIGLIYPDNGDTSYNQKFKGKATLTADTSSSTAYMQLSSLTSEDSAVYYCARGGLDYWGQGTSLTVSSGGGGSGGGGSGGGGSDIVMTQSPASLSASVGETVTITCRASGNIHNYLAWYQQKQGKSPQLLVYNAKTLADGVPSRFSGSGSGTQYSLKINSLQPEDFGSYYCQHFWSTPYTFGGGTKLEMKESKYGPPCPPCPAPEAAGGPSVFLFPPKPKDTLMISRTPEVTCVVVDVSQEDPEVQFNWYVDGVEVHNAKTKPREEQFNSTYRVVSVLTVLHQDWLNGKEYKCKVSNKGLPSSIEKTISKAKGQPREPQVYTLPPSQEEMTKNQVSLTCLVKGFYPSDIAVEWESNGQPENNYKTTPPVLDSDGSFFLYSKLTVDKSRWQEGNVFSCSVMHEALHNHYTQKSLSLSLG |  |  | 2.94 | 75.6 nM | 0.00216 s⁻¹ | 28600 M⁻¹ s⁻¹ | 0.626 |
| 3F11 scFv-Fc (Fc fusion) QVQLQQSGAELVKPGASVKMSCKASGYTFAPYNIHWVRQTPGQGLEWIGLIYPDNGDTSYNQKFKAKATLTADKSSSTAYMQLSSLTSEDSAVYYCARGGFDYWGQGTSLTVSSGGGGSGGGGSGGGGSDIVMTQSQKFMSTSVGDRVSVTCKASQNVGTNVAWYQQKPGQSPKALIYSASYRYSGVPDRFTGSGSGTDFTLTISNVQSEDLAEYFCQQHYSTPFTFGSGTKLEIKESKYGPPCPPCPAPEAAGGPSVFLFPPKPKDTLMISRTPEVTCVVVDVSQEDPEVQFNWYVDGVEVHNAKTKPREEQFNSTYRVVSVLTVLHQDWLNGKEYKCKVSNKGLPSSIEKTISKAKGQPREPQVYTLPPSQEEMTKNQVSLTCLVKGFYPSDIAVEWESNGQPENNYKTTPPVLDSDGSFFLYSKLTVDKSRWQEGNVFSCSVMHEALHNHYTQKSLSLSLG |  |  | 2.92 | 26 nM | 0.0015 s⁻¹ | 57800 M⁻¹ s⁻¹ | 0.1 |
| 1B8 scFv-Fc (Fc fusion) QIQLQQSGAELVKPGASVKMSCKASGYTFASYNLHWVKQTPGQGLEWIGLIYPENGDTSYNQKFKGKATLTADTSSTTAYIQLSSLTSEDSAVYFCARGGFDYWGQGTSLTVSSGGGGSGGGGSGGGGSDIKMTQSPASLSASVGETVTITCGASENIYGALNWYQRKQGKSPQLLIYGATNLADGMSSRFSGSGSGRQYSLKISSLHPDDVATYYCQNVLSTPYTFGGGTKLEIKESKYGPPCPPCPAPEAAGGPSVFLFPPKPKDTLMISRTPEVTCVVVDVSQEDPEVQFNWYVDGVEVHNAKTKPREEQFNSTYRVVSVLTVLHQDWLNGKEYKCKVSNKGLPSSIEKTISKAKGQPREPQVYTLPPSQEEMTKNQVSLTCLVKGFYPSDIAVEWESNGQPENNYKTTPPVLDSDGSFFLYSKLTVDKSRWQEGNVFSCSVMHEALHNHYTQKSLSLSLG |  |  | 2.01 | 74.9 nM | 0.0048 s⁻¹ | 64000 M⁻¹ s⁻¹ | 0.092 |
| 3E2 scFv-Fc (Fc fusion) EIQLQQSGAELVKPGASVKMSCKASGYTFSFYNMHWVKRTPGQGLEWIGLIYPDNGDTSYNQKFKGKATLTADTSSSTAYMQLSSLTSEDSAVYYCARGGLDYWGQGTSLTVSSGGGGSGGGGSGGGGSNIVMTQSQKFMSTSVGDRVSVTCKASQNVGTNVAWYQQKPGQSPKALIYSASYRYTGVPDRFTGSGSGTDFTFTISSVQAEDLAVYYCQQHYSTPYTFGGGTKLEIKESKYGPPCPPCPAPEAAGGPSVFLFPPKPKDTLMISRTPEVTCVVVDVSQEDPEVQFNWYVDGVEVHNAKTKPREEQFNSTYRVVSVLTVLHQDWLNGKEYKCKVSNKGLPSSIEKTISKAKGQPREPQVYTLPPSQEEMTKNQVSLTCLVKGFYPSDIAVEWESNGQPENNYKTTPPVLDSDGSFFLYSKLTVDKSRWQEGNVFSCSVMHEALHNHYTQKSLSLSLG |  |  | 2.96 | 36.5 nM | 0.00152 s⁻¹ | 41800 M⁻¹ s⁻¹ | 0.122 |
| 3A3 scFv-Fc (Fc fusion) QVQLQQSGAELVKPGASVKMSCKASGYTFTTYNIHWVRQTPGQGLEWIGLIYPDNGDTSYNQKFKAKATLTADKSSSTAYMHLSSLTSEDSAVYYCARGGFDYWGQGTTLTVSSGGGGSGGGGSGGGGSDIVMTQSHKFMSTSVGDRVSITCKASQDVNTDVSWYQQKPGQSPKLLIYSASYRYTGVPTRFTGSGSGTDFTFTISGVQAEDLADYYCQQHYNTPYTFGGGTRLEIKESKYGPPCPPCPAPEAAGGPSVFLFPPKPKDTLMISRTPEVTCVVVDVSQEDPEVQFNWYVDGVEVHNAKTKPREEQFNSTYRVVSVLTVLHQDWLNGKEYKCKVSNKGLPSSIEKTISKAKGQPREPQVYTLPPSQEEMTKNQVSLTCLVKGFYPSDIAVEWESNGQPENNYKTTPPVLDSDGSFFLYSKLTVDKSRWQEGNVFSCSVMHEALHNHYTQKSLSLSLG |  |  | 2.63 | 39.6 nM | 0.00122 s⁻¹ | 30800 M⁻¹ s⁻¹ | 0.097 |

From patent publication EP4714976A1
